Experiment [1] has as its target HLA-A*02:01. Briefly: IEDB peptide-MHC binding, purified MHC/competitive/fluorescence; ≥ and ≤ were set here for values at or beyond the usual limits of such assays.
Experiment [2] addresses HLA-A*24:02. The experiment is described as above.
For the next experiment, the target named is HLA-A*30:01. Briefly: IEDB peptide-MHC binding, purified MHC/competitive/radioactivity; filed as Kd, often an IC50 or EC50 that approximates it; ≥ and ≤ were set here for values at or beyond the usual limits of such assays.
The target in a further experiment is HLA-B*44:02. The experiment is described as above. As to conditions: source organism: Dengue virus 2 Jamaica/1409/1983.
The next experiment has as its target HLA-A*02:02. The description is as above. As to conditions: source organism: Vaccinia virus WR.
Another experiment has as its target HLA-A*02:03. The experiment is described as above. The following applies: source organism: Vaccinia virus WR.
The next experiment concerns the target HLA-A*02:06. The experiment is described as above. As to conditions: source organism: Vaccinia virus WR.
In experiment [3] the target is HLA-A*02:01. Briefly: IEDB peptide-MHC binding, purified MHC/direct/fluorescence; filed as Kd, often an IC50 or EC50 that approximates it; ≥ and ≤ were set here for values at or beyond the usual limits of such assays.
The next experiment deals with HLA-A*69:01. Described as above.
The target of the next experiment is HLA-A*30:02. Briefly: IEDB peptide-MHC binding, purified MHC/competitive/radioactivity; filed as Kd, often an IC50 or EC50 that approximates it; ≥ and ≤ were set here for values at or beyond the usual limits of such assays.
The target in a further experiment is HLA-B*51:01. Briefly: IEDB peptide-MHC binding, purified MHC/competitive/fluorescence; filed as Kd, often an IC50 or EC50 that approximates it; ≥ and ≤ were set here for values at or beyond the usual limits of such assays.
A further experiment addresses HLA-A*23:01. Briefly: IEDB peptide-MHC binding, purified MHC/competitive/radioactivity; filed as Kd, often an IC50 or EC50 that approximates it; ≥ and ≤ were set here for values at or beyond the usual limits of such assays.
Experiment [4] addresses HLA-A*24:02. The experiment is described as above.
The target of another experiment is HLA-A*01:01. The experiment is described as above. As to conditions: source organism: Dengue virus 3 Martinique/1243/1999.
A further experiment addresses HLA-A*26:01. The description is as above.
A further experiment concerns the target HLA-A*33:01. Described as above. The following applies: source organism: Dengue virus 2 Jamaica/1409/1983.
The target in another experiment is HLA-A*68:01. Described as above. The following applies: source organism: Dengue virus 2 Jamaica/1409/1983.
A further experiment concerns the target HLA-B*35:01. Described as above. The following applies: source organism: Dengue virus 2 Jamaica/1409/1983.
A further experiment deals with HLA-B*53:01. Described as above. As to conditions: source organism: Dengue virus 2 Jamaica/1409/1983.
Another experiment addresses HLA-B*40:01. Briefly: IEDB peptide-MHC binding, purified MHC/direct/fluorescence; filed as Kd, often an IC50 or EC50 that approximates it; ≥ and ≤ were set here for values at or beyond the usual limits of such assays. The following applies: source organism: Influenza A virus (A/Netherlands/458/98 (H3N2)).
In a further experiment the target is HLA-B*15:01. The experiment is described as above. As to conditions: source organism: Salmonella enterica subsp. enterica serovar Typhimurium.
Setting [5] is: source organism: Sudan ebolavirus.
Setting [6] is: source organism: Zaire ebolavirus.
[7] abbreviates: source organism: Dengue virus 2 Jamaica/1409/1983.
Setting [8] is: source organism: Vaccinia virus WR.
[9] abbreviates: source organism: Hyphomonas neptunium.
[10] abbreviates: source organism: Dengue virus 3 Martinique/1243/1999.
[11] abbreviates: source organism: Dengue virus 1 Brazil/97-11/1997.
The mark [12] stands for this setting: source organism: Dengue virus 4 Philippines/H241/1956.
Setting [13] is: source organism: Salmonella enterica subsp. enterica serovar Typhimurium.

Where only a bound is given, the exact number is not on record here.

The term IC50 denotes the midpoint of a concentration-inhibition curve. As usually defined, the Kd is a measure of binding affinity in units of concentration.

For AFFLYDRLA, the IC50 in the experiment with HLA-A*02:01 [1] (setting [5]) was 35800 nM; with HLA-A*24:02 [2] (setting [5]), no less than 151000 nM.

With AFWETKKNL, the results for the IC50 with HLA-A*02:01 [1] (setting [6]) and in the experiment with HLA-A*24:02 [2] (setting [6]) were no less than 242000 nM and 2480 nM, respectively. Turning to AGVLWDVPSP, the Kd with HLA-A*30:01 (setting [7]) came to 11900 nM. AICSAVPSHW: the Kd in the experiment with HLA-B*44:02 came out at 181 nM. In the case of AIRAGYSIV, the Kd worked out at 1200 nM in the experiment with HLA-A*02:02, 0.211 nM with HLA-A*02:03, 8060 nM with HLA-A*02:06 and 1.42 nM with HLA-A*30:01 (setting [8]). In the case of ALTPPFHPY, the Kd with HLA-A*02:01 [3] (setting [9]) is 9000 nM; in the experiment with HLA-A*69:01 (setting [9]), no less than 20000 nM.

Regarding AYAQMWSLMY, the Kd in the experiment with HLA-A*30:02 (setting [10]) was found to be 169 nM.

CPLVLDFII gave a Kd with HLA-B*51:01 (source organism: Brucella abortus S19) of 323 nM. DQNYVCKHTY: in the experiment with HLA-A*30:02 (setting [10]), the Kd stood at 8020 nM. In turn, DSFLLMLCL came in with an IC50 in the experiment with HLA-A*24:02 [2] (setting [6]) of no less than 313000 nM. For the sequence DYMTSMKRF, the Kd with HLA-A*23:01 (setting [11]) stood at 791 nM; in the experiment with HLA-A*24:02 [4] (setting [11]), 214 nM. As to DYQGKTVWF, the Kd in the experiment with HLA-A*23:01 (setting [12]) came to 805 nM; in the experiment with HLA-A*24:02 [4] (setting [12]) it was 763 nM. Turning to ETENILTVLL, the Kd in the experiment with HLA-A*01:01 was 3840 nM; in the experiment with HLA-A*26:01 (setting [10]), 16200 nM. On to ETFLQSPPI, for which the IC50 with HLA-A*02:01 [1] (setting [5]) was no less than 143000 nM; with HLA-A*24:02 [2] (setting [5]) it was 13900 nM. Take EVKSCHWPK: the Kd amounted to 166 nM with HLA-A*30:01 (setting [7]), 7.23 nM with HLA-A*33:01 and 70.6 nM with HLA-A*68:01. As to FAGPVSQHNY, the Kd with HLA-A*30:02 (setting [7]) worked out at 11.6 nM; in the experiment with HLA-B*35:01 it was 38.4 nM; with HLA-B*53:01, 435 nM. Consider FEKEGYSLV, for which the Kd in the experiment with HLA-B*40:01 came to 118 nM. Take FPPEIINVI: the Kd with HLA-B*51:01 (source organism: Variola virus) came out at 213 nM. GIVRQRVIP displayed an IC50 with HLA-A*24:02 [2] (setting [6]) of no less than 151000 nM.

As for GLAWIPYFG, the IC50 with HLA-A*02:01 [1] (setting [6]) worked out at 134 nM; with HLA-A*24:02 [2] (setting [6]), 62600 nM. Take GLIEEMASA: the Kd was 20 nM in the experiment with HLA-A*02:01 [3] (setting [13]), no less than 20900 nM in the experiment with HLA-A*69:01 (setting [13]) and 4500 nM with HLA-B*15:01. Turning to GNRGSTSFK, the Kd with HLA-A*30:01 (setting [8]) is 2.04 nM. For GRVNPGTYV, the IC50 with HLA-A*24:02 [2] (source organism: Variola virus) stood at 74.3 nM. The sequence GVDFQESAD displayed an IC50 in the experiment with HLA-A*24:02 [2] (setting [6]) of no less than 117000 nM. Turning to HAFSSLLSG, the Kd in the experiment with HLA-A*30:01 (setting [8]) came out at 1110 nM. Consider HTAITQVRNL, for which the Kd in the experiment with HLA-A*26:01 (setting [12]) amounted to 2270 nM. Sequence HYWTAQEQH returned an IC50 with HLA-A*24:02 [2] (setting [5]) of 51100 nM. IDNNTFVRL: the IC50 with HLA-A*02:01 [1] (setting [5]) is no less than 149000 nM; with HLA-A*24:02 [2] (setting [5]), 67900 nM. In the case of ILPWTKISE, the figures for the IC50 with HLA-A*02:01 [1] (setting [8]) and in the experiment with HLA-A*24:02 [2] (setting [8]) were no less than 247000 nM and 33100 nM, respectively. IPITAAAWY: the Kd in the experiment with HLA-A*30:02 (setting [7]) turned out to be 2.47 nM; in the experiment with HLA-B*35:01, 6.19 nM; with HLA-B*53:01, 26.6 nM. For the sequence KDLISYGGGW, the Kd with HLA-B*44:02 came to 310 nM.

Take KGKRALTPPV: the Kd in the experiment with HLA-A*30:01 (source organism: Dengue virus 4 Dominica/814669/1981) was 12.4 nM. With KQRLTNLEK, the Kd in the experiment with HLA-A*30:01 (setting [8]) was determined as 0.951 nM.

These data come from the Immune Epitope Database (IEDB).
